# From the nanobody polyreactivity screen of Harvey et al. (2022)
# Test: yeast display, Sf9 membrane polyspecificity reagent, FACS + sequencing; frameworks hold sequencing errors
# Summary of the method: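 After 36–48 hours of galactose induction, yeast (Saccharomyces cerevisiae BJ5465) displaying a synthetic nanobody library were stained at 4 °C for 1 hour with 10% biotinylated, detergent-solubilized Sf9 membrane reagent. Streptavidin microbeads enriched the stained cells before FACS sorting into low and high (top ~1%) gates on anti-HA and streptavidin fluorescence. Each clone's polyreactivity label reflects its gate of origin.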
row,Sequence,polyreactivity (PSR sort gate)
1,QVQLVESAGGLVQAGGRLRLSCAASGFIFTTNAMGWYRQAPGKEREFVAAITRSGGSTYADSVKGRFTISRDNAKNTVYLQMNSLKPEDTAVYYFNADWAGVDTSYEYDYWGQGTQVTVSS,low polyreactivity
2,QVQLVESAGGLVQAGGRLSLICAASGYTFYYHAMGWYRQAPGKERELVASIRSRGRSTYYADSVKGRFTISRDNAKNTVYLQMNSLKPEDTAVYYCAALPNKPAVYAYDYWGQGTQVTVSS,low polyreactivity
3,QVQLVESAGGLVQAGGSLLLSCAASGSTFGTYAMGWYRQAPGKERELVAAISTGGSTYYADSVKGRFTISRDNAKNTVYLQMNSLKPEDTAVYYCAALAEYVRRASDYWGQGTQVTVSS,low polyreactivity
4,QVQLVESAGGLVQAGGSLRITCAASASTYSWYTMGWYREAPGKERELVASINYSGTNTYYADSVKGRFTISRDNAKNTVYLQMNSLNPEDTAVYYCAARPRTKLTAYNYCGQGTQVTVSS,high polyreactivity
5,QVQLVESAGGLVQAGGSLRLICAASGLIFYRNTMGWYRQAPGKERELVAAISVSGGSTNYADSVKGRFTISRDNAKNTVYLQMNILKPEDTAVYFCATRVNYGYYYWGQGTQVTVSS,high polyreactivity
6,QVQLVESAGGLVQAGGSLRLICAASGRIFGGNTRGWYREAPGKERELGASIRSRGGRTNYADSLNGRFTISRDTAKNTVYLQMNSLQPEDTSVYYCDATQIYRFDYWGQGTQVTVSS,low polyreactivity
7,QVQLVESAGGLVQAGGSLRLICAATGRIYEIYAMGWYRQAPGTERELVATIDSGGSTNYADSVKGRFTISRDNAKNTVYLQMNSLQPEDTAVYYCAGGNPFYDSIGYDYWGQGTQVTVSS,low polyreactivity
8,QVQLVESAGGLVQAGGSLRLSCAASGFIFDVYAMGWYRQAPGKERELVAAISVSSTNYADSVKGRFTISRDNAKNTVYLQMNSLKPEDTAVYYCAADTYTYFLASYLYGQYDYWGQGTQVTVSS,low polyreactivity
9,QVQLVESAGGLVQAGGSLRLSCAASGFIFPRYAMGWYRQAPGKERELVAAISYSGGSTYYADSVKGRFTISRDNAKNTVYLQMNSLKPEDTAVYYCNAYFLSQYQRAYRDDYWGQGTQVTVSS,high polyreactivity
10,QVQLVESAGGLVQAGGSLRLSCAASGFTFVYYVMGWYRQAPGKERELVAAINAGGGSTYYADSVKGRFTISRDNAKNTVYLQMNSLIPEDTAVYYCIARVRVRLGRNWSSYYDWGQCTQVTVSS,high polyreactivity
11,QVQLVESAGGLVQAGGSLRLSCAASGIIFVENAMGWYRQAPGKERELVAAISWDGGSTYYADSVKGRFTISRDNAKNTVYLQMNSLNPEDTAVYYCAADLTISYSQEYYYWGQGTQVTVSS,low polyreactivity
12,QVQLVESAGGLVQAGGSLRLSCAASGLIFAVYAKGLYRQAPGKEREFLAAITGTGSSTYYADSVKGRFTISRDNAKNTVYLQMNSLKPEDTAVYYCNAYVYDWIPYYHIDHDYWGQGTQVTVSS,low polyreactivity
13,QVQLVESAGGLVQAGGSLRLSCAASGLIFEYNAMGWYRQAPGKERELVAAITTNGGSTYYADSVKGRFTISRDNAKNTVYLQINSLKPEDTAVYYCAALGLHQVIEYDYWGQGTQVTVSS,low polyreactivity
14,QVQLVESAGGLVQAGGSLRLSCAASGRIFPRYAMGWYRQAPGKERELVAAINTSGGRTYYADSVKGRFTISRDYAKNTVYLQMNSLKPEDTAVYFCAADYRSRYDYWGQGTQVTVSS,high polyreactivity
15,QVQLVESAGGLVQAGGSLRLSCAASGRIFTNNAMGWYRQAPGKERELVAAISRSGGRTYYADTVKGRFTISRDNAKNTVYVQMNSLKPEDTAVSYCAALGPYGSARRKYGYWGQGTQVTVSS,high polyreactivity
16,QVQLVESAGGLVQAGGSLRLSCAASGRIFWDYAMGWYRQAPGKERELVATITQNDGSTYYADSVKGRFTISRDNAKNTVYLQMNSLKPEDTAVYYCAAYLLGWFTIKYDYGGQGTQVTVSS,low polyreactivity
17,QVQLVESAGGLVQAGGSLRLSCAASGRTFDAYAMGWYRQAPGKERELVATITSGGGTYYADSVKGRFTISRDNAKNTVYLLMNSLTPEDTAVYYCNKRYVVSRKYDYWGQGTQVTVSS,low polyreactivity
18,QVQLVESAGGLVQAGGSLRLSCAASGRTFGGYAMGWYRQAPGKERELVASITSGGSTYYADSVKGRFTISRDNAKNTVYLEMNSLKPEDTAVYYCAADTYFETSTRAIPSNDYWGQGTQVTVSS,low polyreactivity
19,QVQLVESAGGLVQAGGSLRLSCAASGRTFIGNAMGWYRQAPAKERELVAGISYRGGSTYYADSVKGRFSFSRDNAKNTVYLQMNSLKPEDTAVYYCAAPGRGGYYYWGQGTQVTVSS,high polyreactivity
20,QVQLVESAGGLVQAGGSLRLSCAASGRTFTCNAMGWYRQAPGKERELVAAISYSGGSTYYADSVKGRFTISRDNAKNTVYLQMNSLKPEDTAVYNCAVLGTPYGLNDYWGQGTQVTVSS,high polyreactivity
21,QVQLVESAGGLVQAGGSLRLSCAASGRTLTFKTMGWYRQAPGKERELVAGISYSGGSTYYADSVKGRFTISRDNAKNTVYLQMNSLKPEDTAVYYCNAVRVYRRRYDSWGQGTKVTVSS,high polyreactivity

row,Sequence,polyreactivity (PSR sort gate)
1,QVQLVESAGGLVQAGGSLRLSCAASGSIFPFYAMRWYRQAPGKERELVATINFSGGSTYYADSVKGRFTISRDNAKNTVYLQMNSLKPEDTAVYYCAASYGAKYIVLYDYWGQGTQVTVSS,low polyreactivity
2,QVQLVESAGGLVQAGGSLRLSCAASGSIFPWNAMGWYRQAPGKERELVAAISYSGTRTYYADSVKGRFTISRDNAKNTVYLQMNSLKPVDTAVYYCNARGYTRSYVKYDYWGQGTQVTVSS,high polyreactivity
3,QVQLVESAGGLVQAGGSLRLSCAASGSIFQGNARGWYRQAPGKERELVAAISQSGGRTYYADSVKGRFTISRDNAKNTVYLQMISLKPEDTAVYYCNTTKVYRLRFDYWGQGTQVTVSS,low polyreactivity
4,QVQLVESAGGLVQAGGSLRLSCAASGSIFSTYVMGWYRQAPGKERELVAAISRRGGSTYYADSVKGRFTISRDNAKNTVYLQMNSLKPEDTAVSYCAADGTVGRRDYWGQGTQVTVSS,high polyreactivity
5,QVQLVESAGGLVQAGGSLRLSCAASGSIFYGNAMGWYRQAPGKERELVASITYSGGTTNYADSVKGRFTISRDTAKNTVYLQMNSLKPEDTAVYYCAADAIPDSVWYWEYDYWGQGTQVTVSS,low polyreactivity
6,QVQLVESAGGLVQAGGSLRLSCAASGSIFYYYAMGWYRQAPGKERELVATISSSSGSTYYADSVKGRFTISRDNAKYTVYLQMNRLKPEDTAVYYCATVSGSVWQRWVYANYDFWGQGTQVTVSS,low polyreactivity
7,QVQLVESAGGLVQAGGSLRLSCAASGSIIADNAMGWDRQSPGTERELVAAITGGDSTYYADSVKGRFTISRDNAKNTVYLQMNSLKPEDTAVYYCNADRFRGRTVDGDYWGQGTQVTVSS,low polyreactivity
8,QVQLVESAGGLVQAGGSLRLSCAASGSISGYAMGWYRQAPGKQRELVAAISRRGGSTYYADSVKGRFTISRDNEKNTVYLQMNSLKPEDTAVYFCAADPYTRQPNSDRYYWGQGTQVTVSS,high polyreactivity
9,QVQLVESAGGLVQAGGSLRLSCAASGSTFDYYAMGWYRQAPGKERELVASITWGDGSTYYADSVKGRFTISRDNAKNTVYLQMNSLKPEDTAVYYCNADDTQLESYAPGHGYDYWGQGTQVTVSS,low polyreactivity
10,QVQLVESAGGLVQAGGSLRLSCAASGSTFPFYAMGWYRPAPGKERELVAAISASGVRTYYADSVKGRFTISRDNAKNTVYLQMNSLKPEDTAVDYCNRVYSTSRITQYEFDYWGQGTQVTVSS,low polyreactivity
11,QVQLVESAGGLVQAGGSLRLSCAASGSTFPKYAMGWSRQAPGKERELVASISVTTGSTYYADSVKGRFTISRDNAKNTVYLQMNSLKPEDTAVYYCAKRTYSRKFRGAYNYGGQGTQVTVSS,high polyreactivity
12,QVQLVESAGGLVQAGGSLRLSCAASGSTFQSYAMGWYRQAPGKDRELVAAISSGGITYYADSVKGRFTISRDNAKNTVYLQMTSLIPEDTAVYYCAKVPTYLIYNRYSRYDYWGQGTQVTVSS,low polyreactivity
13,QVQLVESAGGLVQAGGSLRLSCAASGSTFSRYAMGWSRQAPGNERELVAAISSGGNTYDADSVKGRFTISRDNAKNTVYLQMNSLKPEDTPVYYCIADRYTWYPWTKCFYYWGQGTHVTVSS,high polyreactivity
14,QVQLVESAGGLVQAGGSLRLSCAASGSTFSYNAMGWYRQAPGKEREFVAAISSRGGNTFYADSVKGRFTISRDNAKNTVYLQMNSLKPEDTAVYYCAARFNRPYDYWGQGTQVTVSS,low polyreactivity
15,QVQLVESAGGLVQAGGSLRLSCAASGSTFYFNAMGWYRQAPGKERELVAAISGGGGTNYADSVKGRFTISRDNAKNTVYLQMTSLKPEDTAVYYCAARNRGLRLSNYFGGNYNRDYWGQGTQVTVSS,low polyreactivity
16,QVQLVESAGGLVQAGGSLRLSCAASGSTFYLNAMGWYRQAPGKERELVATINSSGSTYYADSVKGRFTISRDNAKNTVYLQMNSLKPEDTAVYYCNTVDSYVRSDYWGQGTQVPVSS,low polyreactivity
17,QVQLVESAGGLVQAGGSLRLSCAASGSTFYRYAMGGSRQAPGKERELVAAISSSGGRTYYADSVKGRFTISRDNAKNTVYLQMNSLKPEDTAVYFCATRVGDFHRGKRKRYEYWGQGTQVTVSS,high polyreactivity
18,QVQLVESAGGLVQAGGSLRLSCAASGSTFYRYAMGWYRQAPGKERELVAAISTRGGSTYYADSVKGRFTISRDNAKNTVYLQMNSLKPEDTAVYYCAAKSGSPDDYDYWGQGTQVTVSS,high polyreactivity
19,QVQLVESAGGLVQAGGSLRLSCAASGSTFYTYAMGWYRQAPGKERELVAAISWSGGSTYYADSVKGRFTISRDNAKNSVYLQMNSLKPEDTAVYYCAARRVKYISLDYWGQGTQVTVSS,low polyreactivity
20,QVQLVESAGGLVQAGGSLRLSCAASGSTYTSYAMGWYRQAPGKERELVAAITRNGGTTYYADSVKGRFTLSRDNAKNTVYLQMNSLKPEDTAVYYCNAPHYYYITSDRRFDYWGQGTQVTVSS,low polyreactivity
